The values below come from PMC5548924, “The N-Terminal Region of Fibrillin-1 Mediates a Bipartite Interaction with LTBP1” (Structure(London, England:1993), 2017).

Sequences and labels used below:
B1: LTBP1^TB3E3 (LTBP1 TB3-EGF3) (domain or fragment)
chain: IRPAESNEQIEETDVYQDLCWEHLSDEYVCSRPLVGKQTTYTECCCLYGEAWGMQCALCPLKDSDDYAQLCNIPVTGRRQPYGRDALVDFSEQYTPEADPYFIQDRFLNSFEELQAEECGILNGCENGRCVRVQEGYTCDCFDGYHLDTAKMTCV
B2: LTBP1^E3cbEGF15 (LTBP1 EGF3-cbEGF15) (domain or fragment)
chain: QAEECGILNGCENGRCVRVQEGYTCDCFDGYHLDTAKMTCVDVNECDELNNRMSLCKNAKCINTDGSYKCLCLPGYVPSDKPNYCT
B3: LTBP1^cbEGF14TB3 (LTBP1 cbEGF14-TB3) (domain or fragment)
chain: MDECQDPSSCIDGQCVNTEGSYNCFCTHPMVLDASEKRCIRPAESNEQIEETDVYQDLCWEHLSDEYVCSRPLVGKQTTYTECCCLYGEAWGMQCALCPLKDSDDYAQLCNIPVTGRRQPY
modifications: Ca2+-bound cbEGF14; disulfide-bonded (refolded); limits run from the start of cbEGF14 to just after the last Cys of TB3 by convention, exact construct ends not given; vector-derived N-terminal …

The target of the experiment is T1, FBN1^E2cbEGF1 (fibrillin-1 EGF2-EGF3-Hyb1-cbEGF1) (human, UniProt P35555 113-287, C204 replaced with a serine).
T1 construct: fibrillin-1 (FBN1), human, domains EGF2-EGF3-Hyb1-cbEGF1; His6 tag, Ser-Ala spacer and factor Xa site (Ile-Glu-Gly-Arg) at the N-terminus, tag removed with factor Xa; 15N-labelled in some NMR titrations; Construct described in Robertson et al., 2013b; also called FBN1 EGF2-EGF3-Hyb1-cbEGF1; four-domain FBN1 fragment; not shown: His6, N-terminal, cleaved
T1 sequence (P35555 other isoform, or with tags, fused parts or gaps C204 replaced with a serine | C204 replaced with a serine): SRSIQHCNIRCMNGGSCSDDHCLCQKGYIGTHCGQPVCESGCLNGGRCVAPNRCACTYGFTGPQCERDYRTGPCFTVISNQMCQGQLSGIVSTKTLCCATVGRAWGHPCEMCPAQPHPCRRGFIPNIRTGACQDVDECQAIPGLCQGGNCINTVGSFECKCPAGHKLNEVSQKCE
In words: SPR; Biacore T100; FBN1 fragments amine-coupled to a CM5 chip (1000 RU each flow cell), LTBP1 fragments as analytes; 50 mM Tris pH 7.5, 150 mM NaCl, 0.05% Tween 20, 2 mM CaCl2; 25°C; multi-cycle and single-cycle; Kd estimated from Scatchard plots. Conditions: both partners purified.
By Kd is commonly meant the constant that tells how readily two partners part at equilibrium. Take B1: the dissociation constant Kd is 0.5 to 1 µM.

Consider B2, for which the Kd was approximately 100 µM.

For B3, the Kd was approximately 300 µM.
